Source: patent US7192720

Experiments:
[1] = target: soluble rhTNFR-1 extracellular domain protein (human) (UniProt P19438); experiment: Western blot of soluble hTNFR probed with AF225 pre-mixed with 1:10 BAF225-3 : wild type T7 phage; phage eluted from excised bands and titered
[2] = target: soluble rhTNFR-1 extracellular domain protein (human) (UniProt P19438); experiment: Western blot of soluble hTNFR probed with AF225 pre-mixed with 1:10 BAF225-3 : wild type T7 phage; plaque lift of recovered phage with AF225

Sequence of UniProt P19438 (P19438 30-211 limits assumed): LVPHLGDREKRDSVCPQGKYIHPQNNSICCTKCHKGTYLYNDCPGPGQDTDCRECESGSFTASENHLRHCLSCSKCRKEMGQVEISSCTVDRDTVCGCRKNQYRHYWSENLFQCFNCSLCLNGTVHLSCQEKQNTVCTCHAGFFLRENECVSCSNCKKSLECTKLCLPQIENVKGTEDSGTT

## goat anti-hTNFR polyclonal antibody (AF225)
[1]
  fold more phage recovered from the TNFR band than from the negative control: 100 fold
[2]
  enrichment of target phage relative to negative phage: 190 fold
  percent of phage recovered from the TNFR band that were target phage: 95%
